Measured values taken from patent US11371056B2, “HPPD variants and methods of use” (BASF Agricultural Solutions Seed US LLC, priority 2017, dated 2022).
Numbering of substitutions follows the chain as printed.

B1: SEQ ID NO:12 (protein)
chain: MADLYENPMGLMGFEFIEFASPTPGTLEPIFEIMGFTKVATHRSKNVHLYRQGEINLILNNEPNSIASYFAAEHGPSVCGMAFRVKDSQKAYNRALELGAQPIHIDTGPMELNLPAIKGIGGAPLYLIDRFGEGSSIYDIDFVYLEGVERNPVGAGLKVIDHLTHNVYRGRMVYWANFYEKLFNFREARYFDIKGEYTGLTSKAMSAPDGMIRIPLNEESSKGAGQIEEFLMQFNGEGIQHVAFLTDDLVKTWDALKKIGMRFMTAPGDEYYEMLEGRLPDHGEPVDQLQARGILLDGSSVEGDKRLLLQIFSERLMGPVFFEFIQRKGDDGFGPDSFKVLFEQIERDQVRRGVLTAD
modifications: mutant HPPD polypeptide
B2: SEQ ID NO:18 (protein)
chain: B1 chain with R315K, I345M
modifications: mutant HPPD polypeptide
B3: SEQ ID NO:15 (protein)
chain: B1 chain with R315Q, Q344S, I345M
modifications: mutant HPPD polypeptide
B4: SEQ ID NO:17 (protein)
chain: B1 chain with R315T, Q344S, I345M
modifications: mutant HPPD polypeptide
B5: SEQ ID NO:21 (protein)
chain: B1 chain with R315T, I345M
modifications: mutant HPPD polypeptide
B6: SEQ ID NO:30 (protein)
chain: B1 chain with R315Q, D336H
modifications: mutant HPPD polypeptide
B7: SEQ ID NO:29 (protein)
chain: B1 chain with R315K, D336H
modifications: mutant HPPD polypeptide
B8: SEQ ID NO:27 (protein)
chain: B1 chain with M264L, D336H, Q344S
modifications: mutant HPPD polypeptide
B9: SEQ ID NO:31 (protein)
chain: B1 chain with R315K, D336H, Q344S, I345M
modifications: mutant HPPD polypeptide
B10: SEQ ID NO:19 (protein)
chain: B1 chain with R315Q, I345M
modifications: mutant HPPD polypeptide
B11: SEQ ID NO:14 (protein)
chain: B1 chain with R315K, Q344S, I345M
modifications: mutant HPPD polypeptide
B12: SEQ ID NO:39 (protein)
chain: B1 chain with R213K, R315K, Q344S, I345M
modifications: mutant HPPD polypeptide
B13: SEQ ID NO:32 (protein)
chain: B1 chain with R315Q, D336H, Q344S, I345M
modifications: mutant HPPD polypeptide
B14: SEQ ID NO:23 (protein)
chain: B1 chain with R315Q, D336H, Q344S
modifications: mutant HPPD polypeptide
B15: SEQ ID NO:22 (protein)
chain: B1 chain with R315K, D336H, Q344S
modifications: mutant HPPD polypeptide
B16: SEQ ID NO:24 (protein)
chain: B1 chain with D336H, Q344S
modifications: mutant HPPD polypeptide
B17: SEQ ID NO:34 (protein)
chain: B1 chain with R315T, D336H, Q344S, I345M
modifications: mutant HPPD polypeptide
B18: SEQ ID NO:13 (protein)
chain: B1 chain with R315T
modifications: mutant HPPD polypeptide
B19: SEQ ID NO:37 (protein)
chain: B1 chain with D336H, I345M
modifications: mutant HPPD polypeptide
B20: SEQ ID NO:20 (protein)
chain: B1 chain with I345M
modifications: mutant HPPD polypeptide
B21: SEQ ID NO:40 (protein)
chain: B1 chain with R213K, R315Q, Q344S, I345M
modifications: mutant HPPD polypeptide
B22: SEQ ID NO:25 (protein)
chain: B1 chain with R315T, D336H, Q344S
modifications: mutant HPPD polypeptide
B23: SEQ ID NO:16 (protein)
chain: B1 chain with Q344S, I345M
modifications: mutant HPPD polypeptide
B24: SEQ ID NO:33 (protein)
chain: B1 chain with D336H, Q344S, I345M
modifications: mutant HPPD polypeptide

Test system: Pseudomonas fluorescens HPPD polypeptide (wild-type and mutants)
Assay: Coupled HPPD activity assay: turnover and residual turnover in crude HPPD polypeptide extracts with and without Cmpd. 1
Assay type: biochemical
Conditions: 100 μM Cmpd. 1, normalised to turnover without inhibitor
Procedure: For the generation of crude HPPD polypeptide extract in micro titer plates (MTP) for the determination of residual activity in inhibition assays, cells were grown in 40 or 150 μl LB medium containing 1% Glucose (Merck, Darmstadt, Germany) and 100 μg/ml ampicillin in a standard 96 well plate (Thermo Fisher Scientific, Waltham, USA) incubated for about 18 h in a humidity incubator at 37° C. 30 μl of this starter culture were added to 600 μl LB medium containing 100 μg/ml ampicillin and 150 mM Hepes (Merck, Darmstadt, Germany) as inoculum for the expression culture in 96 well plates (2 ml deep wells; HJ Bioanalytik, Erkelenz, Germany). The plates were sealed by an aluminium foil, and cells were incubated for 5 h at 37° C. on a plate shaker at 750 rpm. The expression was induced by addition of IPTG in a final concentration of 1 mM followed by further sealed incubation for about 18 h at 30° C. on a plate shaker at 750 rpm.
Cells were harvested by centrifugation at 4° C., 2500 g for 15 min discarding the supernatant. Cell pellets were stored at −80° C. and lysed in 250 μl 1× BugBuster® (Merck, Darmstadt, Germany) in 140 mM Tris (pH 7.8), with 1:25000 diluted BNase® (Qiagen, Hilden, Germany) by incubation of the resuspended cells for 30 min at 4° C. and 1000 rpm. Lysates were clarified by centrifugation for 15 min at 4° C., 2500 g, and 150 μl supernatant were transferred in standard 96 well plate (Thermo Fisher Scientific, Waltham, USA) for subsequent testing in quadruplets.
The activity of HPPD polypeptides was determined in absence or presence of HPPD inhibitors using the coupled HPPD activity assay (FIG. 1).
For the determination of the residual activity, the apparent kinetic constant (kapp) of the determined substrate conversion was measured as kinetic changes in absorbance (OD) at 320 nm in a coupled assay, in that homogentisate (HGA) formed by HPPD from HPP is directly converted into the well absorbing molecule maleylacetoacetate (MAA) by a second enzyme homogentisate dioxygenase (HGD), applied in excess uniformly in all assays (see FIG. 1). The measurements were performed in 384 micro titer plates (Greiner Bio-One GmbH, Frickenhausen, Germany) by plate readers (Tecan infinite M1000 or M1000PRO, Tecan, Männedorf, Switzerland). The kcat/kM ratio of an enzymatic activity is proportional to the apparent kinetic constant kapp and is proportional to kcat/kM*[E] ([E]=enzyme concentration). […] As both kapp measurements in the presence and absence of inhibitor were performed by use of the identical enzyme sample, crude or purified, and thereby at the same enzyme concentration, the enzyme concentration eliminates from the calculation of residual activity and the ratio of both kapp directly indicates the change of kM due to the inhibition.
The assay solution used for determination of residual activities in raw HPPD polypeptide samples was composed by 200 mM sodium phosphate (Merck, Darmstadt, Germany, pH 7.0), 5 mM MgCl2 (Merck, Darmstadt, Germany), 20 mM ascorbate (Sigma-Aldrich, St. Louis, USA), 1 mM DTT (Sigma-Aldrich, St. Louis, USA), 0.1% Pluronic F-68 (Sigma-Aldrich, St. Louis, USA), 40 μM FeSO4 (Sigma-Aldrich, St. […] Louis, USA) and equilibrated for 20 min on ice.

Molecule	Residual turnover [%]
B1	40%
B2	41%
B3	39%
B4	41%
B5	38%
B6	61%
B7	61%
B8	58%
B9	48%
B10	40%
B11	40%
B12	32%
B13	57%
B14	48%
B15	42%
B16	54%
B17	53%
B18	38%
B19	42%
B20	49%
B21	36%
B22	45%
B23	46%

Same assay, conditions: absence of Cmpd. 1; changes in absorbance (OD) at 320 nm in the coupled assay, 30 min

Molecule	Turnover
B1	0.189
B2	0.221
B3	0.161
B4	0.184
B5	0.214
B6	0.294
B7	0.286
B8	0.262
B9	0.268
B24	0.015
B10	0.218
B11	0.18
B12	0.176
B13	0.269
B14	0.272
B15	0.259
B16	0.271
B17	0.278
B18	0.168
B19	0.106
B20	0.166
B21	0.204
B22	0.25
B23	0.181

Same assay, conditions: presence of 100 μM Cmpd. 1; changes in absorbance (OD) at 320 nm in the coupled assay, 30 min

Molecule	Residual turnover
B1	0.076
B2	0.091
B3	0.062
B4	0.075
B5	0.082
B6	0.18
B7	0.174
B8	0.153
B9	0.128
B24	0.014
B10	0.087
B11	0.072
B12	0.057
B13	0.154
B14	0.131
B16	0.147
B17	0.148
B18	0.064
B19	0.045
B20	0.082
B21	0.073
B22	0.112
B23	0.083
